Data reported in US20190359687A1 (Bayer, published 2019).
Blank lines part the entries; values can stand above or below the binder they belong to.

How the values were obtained:
[1] = biological target: T1, human glycophorin A on human red blood cells (human, UniProt P02724 20-150); assay: partition to human RBC, human HemA plasma, 1 min
T1 construct: whole, on cells; also called human GPA; huGPA
T1 sequence (looked up): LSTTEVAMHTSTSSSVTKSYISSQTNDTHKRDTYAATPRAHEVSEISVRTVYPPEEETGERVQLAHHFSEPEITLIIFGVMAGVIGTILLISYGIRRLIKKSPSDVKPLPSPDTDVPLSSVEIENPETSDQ
Description: (§1) The supernatant containing plasma, platelets and white blood cells was discarded and the red blood cell pellet was resuspended in 10 pellet volumes of PBS (50 mM Phosphate buffer, pH7.4, 150 mM NaCl). The red blood cells were then pelleted by slow speed centrifugation and the red blood cells re-suspended in 10 volumes of PBS. This washing step was repeated 4 more times and the red blood cells finally resuspended in a volume of plasma from Hemophilia patients with less than 1% of normal levels of FVIII (GeorgeKing Bio-Medical, Overland Park, Kans.) to generate a total volume equal to the initial blood volume such that the RBC density was equal to that of normal whole blood. BDD and RBC targeted FVIII molecules were then spiked into RBC suspension in HemA plasma at 1 IU/mL, and incubated at room temperature for 2-3 hours with gentle rotation. […] An additional control was performed in which BDD or RBC targeted FVIII molecules were added at 11U/ml into the same human hemophilia A plasma and incubated for 5 minutes and 180 mins. These samples were used to determine the input FVIII activity in the presence of plasma which was used to calculate the percentage of the molecule that was bound to RBC. All plasma samples were then assayed together for FVIII activity using the Coatest SP assay (DiaPharma, Columbus, Ohio). The assay was performed following the manufacturer's instructions in a 96-well plate format. […] The plate was incubated at 37° C. for 10 minutes with shaking between each reagent addition. […] The amount of FVIII activity in the plasma reflects the amount of unbound FVIII. The FVIII activity of the same molecule spiked in to Hemophilia A plasma alone (no RBC) and incubated for 5 minutes was normalized to 100%.

[2] = biological target: T1, human glycophorin A on human red blood …; assay: partition to human RBC, human HemA plasma, 60 min
Description: as §1

[3] = biological target: T1, human glycophorin A on human red blood …; assay: partition to human RBC, human HemA plasma, 15 min
Description: as §1

[4] = biological target: T1, human glycophorin A on human red blood …; assay: partition to human RBC, human HemA plasma, 30 min
Description: as §1

[5] = biological target: T1, human glycophorin A on human red blood …; assay: partition to human RBC, human HemA plasma, 5 min
Description: as §1

[6] = biological target: T1, human glycophorin A on human red blood …; assay: partition to human RBC, human HemA plasma, 120 min
Description: as §1

[7] = biological target: T2, Cynomolgus monkey glycophorin A on Cynomolgus monkey red blood cells (Cynomolgus monkey); assay: partition to Cyno RBC, human HemA plasma, 120 min;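 note: FVIII fusion spiked at 1 IU/mL into RBC suspension at whole-blood density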
T2 construct: whole, on cells; also called Cyno GPA; Cyno RBC
Description: (§2) To evaluate partition to cynomolgus monkey or human red blood cells, whole blood was draw from Cynomolgus monkey or normal human volunteers in to anticoagulant with 4% sodium citrate (Sigma, St Louis, Mo.). The red blood cells were purified by layering the whole blood on to ficoll followed by low speed centrifugation. The supernatant containing plasma, platelets and white blood cells was discarded and the red blood cell pellet was resuspended in 10 pellet volumes of PBS (50 mM Phosphate buffer, pH7.4, 150 mM NaCl). The red blood cells were then pelleted by slow speed centrifugation and the red blood cells re-suspended in 10 volumes of PBS. This washing step was repeated 4 more times and the red blood cells finally resuspended in a volume of plasma from Hemophilia patients with less than 1% of normal levels of FVIII (GeorgeKing Bio-Medical, Overland Park, Kans.) to generate a total volume equal to the initial blood volume such that the RBC density was equal to that of normal whole blood. BDD and RBC targeted FVIII molecules were then spiked into RBC suspension in HemA plasma at 1 IU/mL, and incubated at room temperature for 2-3 hours with gentle rotation. […] An additional control was performed in which BDD or RBC targeted FVIII molecules were added at 11U/ml into the same human hemophilia A plasma and incubated for 5 minutes and 180 mins. These samples were used to determine the input FVIII activity in the presence of plasma which was used to calculate the percentage of the molecule that was bound to RBC. All plasma samples were then assayed together for FVIII activity using the Coatest SP assay (DiaPharma, Columbus, Ohio). The assay was performed following the manufacturer's instructions in a 96-well plate format. […] The plate was incubated at 37° C. for 10 minutes with shaking between each reagent addition.

[8] = biological target: T1, human glycophorin A on human red blood …; assay: partition to human RBC, vWF deficient plasma, 120 min
[9] = biological target: T1, human glycophorin A on human red blood …; assay: partition to human RBC, vWF deficient plasma, 60 min
[10] = biological target: T2, Cynomolgus monkey glycophorin A on …; assay: partition to Cyno RBC, human HemA plasma, 15 min;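 note: FVIII fusion spiked at 1 IU/mL into RBC suspension at whole-blood density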
Description: as §2

[11] = biological target: T2, Cynomolgus monkey glycophorin A on …; assay: partition to Cyno RBC, human HemA plasma, 1 min;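 note: FVIII fusion spiked at 1 IU/mL into RBC suspension at whole-blood density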
Description: as §2

[12] = biological target: T2, Cynomolgus monkey glycophorin A on …; assay: partition to Cyno RBC, human HemA plasma, 60 min;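 note: FVIII fusion spiked at 1 IU/mL into RBC suspension at whole-blood density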
Description: as §2

[13] = biological target: T1, human glycophorin A on human red blood …; assay: partition to human RBC, vWF deficient plasma, 5 min
[14] = biological target: T1, human glycophorin A on human red blood …; assay: partition to human RBC, human HemA plasma, 120 min; remark: listed apart in the source
Description: as §1

[15] = biological target: T2, Cynomolgus monkey glycophorin A on …; assay: partition to Cyno RBC, human HemA plasma, 5 min;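 note: FVIII fusion spiked at 1 IU/mL into RBC suspension at whole-blood density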
[16] = biological target: T1, human glycophorin A on human red blood …; assay: partition to human RBC, vWF deficient plasma, 30 min
[17] = biological target: T3, glycophorin A peptide GP5 (human, biotin at the N-terminus); assay: Octet, GP5 peptide on the probe, fusion protein in solution, 1:1 fit
T3 construct: Residues 42 to 61 of the human glycophorin A extracellular domain
T3 peptide: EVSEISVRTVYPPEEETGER

[18] = biological target: T2, Cynomolgus monkey glycophorin A on …; assay: partition to Cyno RBC, human HemA plasma, 30 min;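 note: FVIII fusion spiked at 1 IU/mL into RBC suspension at whole-blood density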
[19] = biological target: T1, human glycophorin A on human red blood …; assay: partition to human RBC, vWF deficient plasma, 15 min
[20] = biological target: T1, human glycophorin A on human red blood …; assay: partition to human RBC, vWF deficient plasma, 1 min

percentage bound to human RBC [1]: 0%
percentage bound to human RBC [2]: 2%
percentage bound to human RBC [3]: 4%
percentage bound to human RBC [4]: 0%
percentage bound to human RBC [5]: 2%
percentage bound to human RBC [6]: 0%
B1: B-domain deleted FVIII (other, human, UniProt P00451 20-2351, looked up)
chain: ATRRYYLGAVELSWDYMQSDLGELPVDARFPPRVPKSFPFNTSVVYKKTLFVEFTDHLFNIAKPRPPWMGLLGPTIQAEVYDTVVITLKNMASHPVSLHAVGVSYWKASEGAEYDDQTSQREKEDDKVFPGGSHTYVWQVLKENGPMASDPLCLTYSYLSHVDLVKDLNSGLIGALLVCREGSLAKEKTQTLHKFILLFAVFDEGKSWHSETKNSLMQDRDAASARAWPKMHTVNGYVNRSLPGLIGCHRKSVYWHVIGMGTTPEVHSIFLEGHTFLVRNHRQASLEISPITFLTAQTLLMDLGQFLLFCHISSHQHDGMEAYVKVDSCPEEPQLRMKNNEEAEDYDDDLTDSEMDVVRFDDDNSPSFIQIRSVAKKHPKTWVHYIAAEEEDWDYAPLVLAPDDRSYKSQYLNNGPQRIGRKYKKVRFMAYTDETFKTREAIQHESGILGPLLYGEVGDTLLIIFKNQASRPYNIYPHGITDVRPLYSRRLPKGVKHLKDFPILPGEIFKYKWTVTVEDGPTKSDPRCLTRYYSSFVNMERDLASGLIGPLLICYKESVDQRGNQIMSDKRNVILFSVFDENRSWYLTENIQRFLPNPAGVQLEDPEFQASNIMHSINGYVFDSLQLSVCLHEVAYWYILSIGAQTDFLSVFFSGYTFKHKMVYEDTLTLFPFSGETVFMSMENPGLWILGCHNSDFRNRGMTALLKVSSCDKNTGDYYEDSYEDISAYLLSKNNAIEPRSFSQNPPVLKRHQREITRTTLQSDQEEIDYDDTISVEMKKEDFDIYDEDENQSPRSFQKKTRHYFIAAVERLWDYGMSSSPHVLRNRAQSGSVPQFKKVVFQEFTDGSFTQPLYRGELNEHLGLLGPYIRAEVEDNIMVTFRNQASRPYSFYSSLISYEEDQRQGAEPRKNFVKPNETKTYFWKVQHHMAPTKDEFDCKAWAYFSDVDLEKDVHSGLIGPLLVCHTNTLNPAHGRQVTVQEFALFFTIFDETKSWYFTENMERNCRAPCNIQMEDPTFKENYRFHAINGYIMDTLPGLVMAQDQRIRWYLLSMGSNENIHSIHFSGHVFTVRKKEEYKMALYNLYPGVFETVEMLPSKAGIWRVECLIGEHLHAGMSTLFLVYSNKCQTPLGMASGHIRDFQITASGQYGQWAPKLARLHYSGSINAWSTKEPFSWIKVDLLAPMIIHGIKTQGARQKFSSLYISQFIIMYSLDGKKWQTYRGNSTGTLMVFFGNVDSSGIKHNIFNPPIIARYIRLHPTHYSIRSTLRMELMGCDLNSCSMPLGMESKAISDAQITASSYFTNMFATWSPSKARLHLQGRSNAWRPQVNNPKEWLQVDFQKTMKVTGVTTQGVKSLLTSMYVKEFLISSSQDGHQWTLFFQNGKVKVFQGNQDSFTPVVNSLDPPLLTRYLRIHPQSWVHQIALRMEVLGCEAQDLY
notes: Untargeted control without scFv; also called BDD-FVIII; BDD

% bound to Cyno RBC [7]: 79%
percentage bound to human RBC [8]: 79.6%
percentage bound to human RBC [9]: 78.8%
% bound to Cyno RBC [10]: 65.7%
% bound to Cyno RBC [11]: 17.4%
% bound to Cyno RBC [12]: 78.5%
percentage bound to human RBC [13]: 69.5%
percentage bound to human RBC [14]: 76.4%
% bound to Cyno RBC [15]: 53%
percentage bound to human RBC [16]: 79.4%
Kd [17]: 4.89 nM
koff [17]: 0.0027 s⁻¹
kon [17]: 525000 M⁻¹ s⁻¹
% bound to Cyno RBC [18]: 73%
percentage bound to human RBC [19]: 78%
percentage bound to human RBC [20]: 45.9%
B2: TPP-8743 FVIII-scFv fusion protein (other)
chain: ATRRYYLGAVELSWDYMQSDLGELPVDARFPPRVPKSFPFNTSVVYKKTLFVEFTDHLFNIAKPRPPWMGLLGPTIQAEVYDTVVITLKNMASHPVSLHAVGVSYWKASEGAEYDDQTSQREKEDDKVFPGGSHTYVWQVLKENGPMASDPLCLTYSYLSHVDLVKDLNSGLIGALLVCREGSLAKEKTQTLHKFILLFAVFDEGKSWHSETKNSLMQDRDAASARAWPKMHTVNGYVNRSLPGLIGCHRKSVYWHVIGMGTTPEVHSIFLEGHTFLVRNHRQASLEISPITFLTAQTLLMDLGQFLLFCHISSHQHDGMEAYVKVDSCPEEPQLRMKNNEEAEDYDDDLTDSEMDVVRFDDDNSPSFIQIRSVAKKHPKTWVHYIAAEEEDWDYAPLVLAPDDRSYKSQYLNNGPQRIGRKYKKVRFMAYTDETFKTREAIQHESGILGPLLYGEVGDTLLIIFKNQASRPYNIYPHGITDVRPLYSRRLPKGVKHLKDFPILPGEIFKYKWTVTVEDGPTKSDPRCLTRYYSSFVNMERDLASGLIGPLLICYKESVDQRGNQIMSDKRNVILFSVFDENRSWYLTENIQRFLPNPAGVQLEDPEFQASNIMHSINGYVFDSLQLSVCLHEVAYWYILSIGAQTDFLSVFFSGYTFKHKMVYEDTLTLFPFSGETVFMSMENPGLWILGCHNSDFRNRGMTALLKVSSCDKNTGDYYEDSYEDISAYLLSKNNAIEPRSFSQNGGGGSTGGTGGSSGGGTGSGGGGTGGSGGTDIQLTQSPSFLSASVGDRVTITCRASSSVRYIYWFQQKPGKAPKLLIYATSFRQSGVPSRFSGSGSGTEYTLTISSLQPEDFATYYCHQRNSFPYTFGQGTKLEIKGGGGSGGGGSGGGGSGGGGSEVQLVQSGAEVKKPGASVKVSCKASGYTFTTYAIHWVRQAPGQGLEWMGYINPSSGYTRYNPKFKGRVTMTRDKSTSTAYMELRSLRSDDTAVYYCWTGTRDYWGQGTTVTVSSGGGGSQNPPVLKRHQREITDENQSPRSFQKKTRHYFIAAVERLWDYGMSSSPHVLRNRAQSGSVPQFKKVVFQEFTDGSFTQPLYRGELNEHLGLLGPYIRAEVEDNIMVTFRNQASRPYSFYSSLISYEEDQRQGAEPRKNFVKPNETKTYFWKVQHHMAPTKDEFDCKAWAYFSDVDLEKDVHSGLIGPLLVCHTNTLNPAHGRQVTVQEFALFFTIFDETKSWYFTENMERNCRAPCNIQMEDPTFKENYRFHAINGYIMDTLPGLVMAQDQRIRWYLLSMGSNENIHSIHFSGHVFTVRKKEEYKMALYNLYPGVFETVEMLPSKAGIWRVECLIGEHLHAGMSTLFLVYSNKCQTPLGMASGHIRDFQITASGQYGQWAPKLARLHYSGSINAWSTKEPFSWIKVDLLAPMIIHGIKTQGARQKFSSLYISQFIIMYSLDGKKWQTYRGNSTGTLMVFFGNVDSSGIKHNIFNPPIIARYIRLHPTHYSIRSTLRMELMGCDLNSCSMPLGMESKAISDAQITASSYFTNMFATWSPSKARLHLQGRSNAWRPQVNNPKEWLQVDFQKTMKVTGVTTQGVKSLLTSMYVKEFLISSSQDGHQWTLFFQNGKVKVFQGNQDSFTPVVNSLDPPLLTRYLRIHPQSWVHQIALRMEVLGCEAQDLY
notes: The entry is the mature protein without signal peptide; most of the material is cut at the furin site into two chains; also called PPB 6723
